Data: US20100056764A1 (Novo Nordisk, published 2010)

Columns and labels:
mouse NKG2D = target: T1, mouse NKG2D (mouse, UniProt O54709 1-232, limits assumed); test: not described
T1 construct: The assay format for the cross-reactivity test is not described
T1 sequence (looked up): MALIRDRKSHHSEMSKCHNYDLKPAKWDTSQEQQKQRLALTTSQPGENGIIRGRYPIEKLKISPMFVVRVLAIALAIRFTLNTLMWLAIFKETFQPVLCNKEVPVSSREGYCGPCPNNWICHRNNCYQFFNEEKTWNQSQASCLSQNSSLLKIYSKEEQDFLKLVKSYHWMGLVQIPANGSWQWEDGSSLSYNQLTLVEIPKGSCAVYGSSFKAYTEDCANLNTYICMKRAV

rat NKG2D = target: T2, rat NKG2D (rat, UniProt O70215 1-215, limits assumed); test: not described
T2 construct: The assay format for the cross-reactivity test is not described
T2 sequence (looked up): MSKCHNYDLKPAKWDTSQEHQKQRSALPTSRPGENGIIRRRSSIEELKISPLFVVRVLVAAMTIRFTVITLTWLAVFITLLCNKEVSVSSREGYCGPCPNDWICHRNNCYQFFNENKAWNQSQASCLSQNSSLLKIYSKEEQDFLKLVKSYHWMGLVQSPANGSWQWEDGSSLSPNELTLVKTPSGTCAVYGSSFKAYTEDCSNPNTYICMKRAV

dog NKG2D = target: T3, dog NKG2D (dog, UniProt A0A8I3PNL2 1-217); test: not described
T3 construct: The assay format for the cross-reactivity test is not described
T3 sequence: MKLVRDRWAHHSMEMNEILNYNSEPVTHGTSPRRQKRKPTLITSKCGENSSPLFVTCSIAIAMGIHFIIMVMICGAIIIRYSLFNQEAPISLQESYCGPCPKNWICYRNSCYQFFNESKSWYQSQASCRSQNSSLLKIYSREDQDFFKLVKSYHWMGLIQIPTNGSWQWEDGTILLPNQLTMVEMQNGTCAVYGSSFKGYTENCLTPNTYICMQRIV

pig NKG2D = target: T4, pig NKG2D (pig, UniProt Q9GLF5 1-214, limits assumed); test: not described
T4 construct: The assay format for the cross-reactivity test is not described
T4 sequence (looked up): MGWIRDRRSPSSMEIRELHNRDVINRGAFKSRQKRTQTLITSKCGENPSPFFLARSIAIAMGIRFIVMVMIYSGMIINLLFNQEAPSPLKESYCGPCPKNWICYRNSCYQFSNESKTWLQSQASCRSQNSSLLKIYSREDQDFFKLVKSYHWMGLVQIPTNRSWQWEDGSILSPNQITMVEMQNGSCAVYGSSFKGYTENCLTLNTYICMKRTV

[1] = target: T5, human NKG2D (hNKG2D) on the cell surface (human, UniProt P26718 1-216); test: cell-based or functional assay
T5 chain: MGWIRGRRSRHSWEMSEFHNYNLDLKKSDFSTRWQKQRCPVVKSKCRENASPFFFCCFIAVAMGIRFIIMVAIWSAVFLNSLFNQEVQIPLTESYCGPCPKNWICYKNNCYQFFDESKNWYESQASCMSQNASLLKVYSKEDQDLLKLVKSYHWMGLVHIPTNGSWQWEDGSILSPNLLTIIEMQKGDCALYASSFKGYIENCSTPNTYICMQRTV

[2] = target: T6, recombinant NKG2D-Fc protein (R&D Systems), immobilized on a Biacore CM5 chip (human, UniProt P26718 78-216); test: SPR (Biacore), mean of the two NKG2D-Fc densities
T6 construct: also called NKG2D-hFc; hFc-NKG2D; not shown: Fc portion of the purchased fusion protein
T6 sequence: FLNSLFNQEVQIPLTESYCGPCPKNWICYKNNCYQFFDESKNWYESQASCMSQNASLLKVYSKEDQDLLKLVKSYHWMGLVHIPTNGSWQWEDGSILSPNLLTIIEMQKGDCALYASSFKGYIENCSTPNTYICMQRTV
Method: (§1) Protein immobilisation. […] Recombinant NKG2D-Fc proteins were immobilized covalently to carboxyl groups in the dextran layer on a Sensor Chip CM5 (Biacore GE Healthcare; BR-1000-14). The sensor chip surface was activated with EDC/NHS (N-ethyl-N′-(3-dimethylaminopropyl)carbodiimidehydrochloride and N-hydroxysuccinimide (Biacore GE Healthcare; BR-1000-50)). Proteins were diluted to 10 μg/ml in coupling buffer (10 mM acetate, pH 5.2) and injected until the appropriate immobilization level was reached (i.e. 500 to 1000 RU). Deactivation of the remaining activated groups was performed using 100 mM ethanolamine pH 8 (Biacore GE Healthcare; BR-1000-50).
(§2) Affinity measurement. […] For kinetic experiments, serial dilutions of soluble antibodies (from 0.3 to 30 nanoM) were injected for 2 min at a constant flow rate of 40 μl/min on dextran layers containing immobilized NKG2D-Fc proteins (500 to 1000 RU), and allowed to dissociate for 3 min before regeneration by a eight second injection of 500 mM NaCl and 10 mM NaOH buffer. The resulting sensorgrams were analysed by global fitting using the Langmuir model. The dissociation constant (KD) was calculated as KD=kd/ka.

[3] = target: T6, recombinant NKG2D-Fc protein (R&D …); test: SPR (Biacore), NKG2D-Fc immobilized on CM5 chip at 600 RU, antibody in solution, Langmuir fit
Method: as §1, §2

[4] = target: T5, human NKG2D (hNKG2D) on the cell surface; test: flow cytometry, NKG2D/DAP10 BaF/3 cells pre-incubated with antibody, then 1 µg MICA-mFc (competitor)
Method: Flow cytometry assays—MICA blockade. […] The cells were then analysed on a B&D FACSArray flow cytometer. The degree of reduction of MICA binding by preincubation was analysed as MFI (mean fluorescence intensity) of binding with pre-incubation in % of binding of MICA without preincubation.

[5] = target: T5, human NKG2D (hNKG2D) on the cell surface; test: flow cytometry, dose-response on NKG2D- and DAP10-expressing BaF/3 cells, y axis % of max binding

B1: 16F16, fully human anti-hNKG2D monoclonal antibody, recombinantly expressed as IgG4 isotype (antibody, V domains shown)
VH: EVQLVESGGGLVKPGGSLRLSCAASGFTFSSYSMNWVRQAPGKGLEWVSSITSSSSYIYYADSVKGRFTISRDNAKNSLYLQMNSLRAEDTAVYYCARDRRYFDWFPLDYRGQGTLVTVSS
VL: DIQMTQSPSSLSASVGDRVTITCRASQGISSWLAWYQQKPEKAPKSLIYAASSLQSGVPSRFSGSGSGTDFTLTISSLQPEDFATYYCQQYNGYPYTFGQGTKLEIKR
notes: also called 16F16 IgG4; 16F16 (IgG4)
B1: no binding (mouse NKG2D); no binding (rat NKG2D); no binding (dog NKG2D). For the same binder, the binding result (pig NKG2D) was “no binding”, the “EC50 (µg/ml), inhibition of NK cell killing of MICA-expressing target cells (51Cr release)” value [1] was 0.14 µg/mL and the “EC50 (µg/ml), inhibition of NK cell killing of ULPB3-expressing target cells (51Cr release)” value [1] was 0.35 µg/mL. The Kd [2] was 0.172 nM, the Kd [3] was 0.165 nM and the IC50 [4] was 0.017 nM. The “EC50 (read off the curve)” value [5] was ~0.03 nM.
